Data published in publication PMC3927129.

Tests used:
[1] = target: membranous subcomplex VO (ICL12) of the Thermus thermophilus rotary ATPase (Thermus thermophilus) (UniProt P74902); assay: native MS
[2] = target: subunit L of the Thermus thermophilus rotary ATPase (L12 membrane ring) (Thermus thermophilus); assay: native MS

peripheral stalk (subunits E and G) of the Thermus thermophilus rotary ATPase (from UniProt P74901 1-188) (complex)
stoichiometry N [1]: 2

subunit L of the Thermus thermophilus rotary ATPase (L12 membrane ring) (natural protein)
stoichiometry N [2]: 12
